What all share (test): cell-based or functional assay
In test [1] the target is T1, ADAMTS4 (human, UniProt O75173 213-685, limits assumed).
T1 sequence (looked up): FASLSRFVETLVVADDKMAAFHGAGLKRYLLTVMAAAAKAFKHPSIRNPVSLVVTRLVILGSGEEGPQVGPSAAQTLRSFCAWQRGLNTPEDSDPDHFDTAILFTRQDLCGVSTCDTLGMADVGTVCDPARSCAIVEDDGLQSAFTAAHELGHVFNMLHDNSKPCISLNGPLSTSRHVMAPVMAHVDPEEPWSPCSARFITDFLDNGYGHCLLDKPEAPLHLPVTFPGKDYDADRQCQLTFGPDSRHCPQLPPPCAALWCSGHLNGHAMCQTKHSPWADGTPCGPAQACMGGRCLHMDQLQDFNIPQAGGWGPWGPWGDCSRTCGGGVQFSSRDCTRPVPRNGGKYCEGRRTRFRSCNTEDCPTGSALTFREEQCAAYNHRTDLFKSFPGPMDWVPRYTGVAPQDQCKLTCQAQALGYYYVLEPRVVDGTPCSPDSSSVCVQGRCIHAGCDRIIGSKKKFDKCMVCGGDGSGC

The target in test [2] is T2, ADAMTS5 (human, UniProt Q9UNA0 262-622, limits assumed).
T2 sequence (looked up): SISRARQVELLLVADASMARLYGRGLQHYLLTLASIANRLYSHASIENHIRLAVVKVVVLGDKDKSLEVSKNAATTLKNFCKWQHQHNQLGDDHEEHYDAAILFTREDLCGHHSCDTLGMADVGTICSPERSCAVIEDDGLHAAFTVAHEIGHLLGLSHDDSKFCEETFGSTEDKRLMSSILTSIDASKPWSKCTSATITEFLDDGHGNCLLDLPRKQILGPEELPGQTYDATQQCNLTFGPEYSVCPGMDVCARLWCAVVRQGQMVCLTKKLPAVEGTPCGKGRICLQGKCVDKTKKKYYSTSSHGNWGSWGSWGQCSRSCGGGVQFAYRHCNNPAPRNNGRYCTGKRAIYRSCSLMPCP

The target in test [3] is T3, MMP1 (human, UniProt P03956 100-469, limits assumed).
T3 sequence (looked up): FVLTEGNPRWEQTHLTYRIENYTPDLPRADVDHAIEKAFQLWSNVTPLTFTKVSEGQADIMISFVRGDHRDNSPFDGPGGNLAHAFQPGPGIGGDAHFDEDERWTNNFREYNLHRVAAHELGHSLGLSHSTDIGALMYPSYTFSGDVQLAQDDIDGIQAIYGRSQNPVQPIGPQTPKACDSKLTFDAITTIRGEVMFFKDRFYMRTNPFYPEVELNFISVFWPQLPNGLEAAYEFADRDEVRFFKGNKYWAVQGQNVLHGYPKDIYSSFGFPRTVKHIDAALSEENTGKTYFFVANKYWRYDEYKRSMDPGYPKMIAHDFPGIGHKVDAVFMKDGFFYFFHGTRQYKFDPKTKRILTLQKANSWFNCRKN

The target of test [4] is MMP8 (human, UniProt P22894 101-467, limits assumed).
MMP8, sequence (P22894 101-467 limits assumed): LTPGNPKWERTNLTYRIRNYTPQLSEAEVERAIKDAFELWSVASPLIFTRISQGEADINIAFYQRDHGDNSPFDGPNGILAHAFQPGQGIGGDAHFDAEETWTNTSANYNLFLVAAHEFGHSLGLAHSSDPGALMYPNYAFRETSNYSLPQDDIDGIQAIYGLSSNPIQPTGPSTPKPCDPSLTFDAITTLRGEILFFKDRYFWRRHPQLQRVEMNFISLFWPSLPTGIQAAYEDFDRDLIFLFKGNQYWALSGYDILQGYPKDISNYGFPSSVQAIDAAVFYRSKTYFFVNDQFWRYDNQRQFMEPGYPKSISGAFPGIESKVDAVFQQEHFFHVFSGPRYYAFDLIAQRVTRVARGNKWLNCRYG
Test [5] addresses MMP13 (human, UniProt P45452 104-471, limits assumed).
For test [6], the target named is T4, MMP2 (human, UniProt P08253 110-660, limits assumed).
T4 sequence (looked up): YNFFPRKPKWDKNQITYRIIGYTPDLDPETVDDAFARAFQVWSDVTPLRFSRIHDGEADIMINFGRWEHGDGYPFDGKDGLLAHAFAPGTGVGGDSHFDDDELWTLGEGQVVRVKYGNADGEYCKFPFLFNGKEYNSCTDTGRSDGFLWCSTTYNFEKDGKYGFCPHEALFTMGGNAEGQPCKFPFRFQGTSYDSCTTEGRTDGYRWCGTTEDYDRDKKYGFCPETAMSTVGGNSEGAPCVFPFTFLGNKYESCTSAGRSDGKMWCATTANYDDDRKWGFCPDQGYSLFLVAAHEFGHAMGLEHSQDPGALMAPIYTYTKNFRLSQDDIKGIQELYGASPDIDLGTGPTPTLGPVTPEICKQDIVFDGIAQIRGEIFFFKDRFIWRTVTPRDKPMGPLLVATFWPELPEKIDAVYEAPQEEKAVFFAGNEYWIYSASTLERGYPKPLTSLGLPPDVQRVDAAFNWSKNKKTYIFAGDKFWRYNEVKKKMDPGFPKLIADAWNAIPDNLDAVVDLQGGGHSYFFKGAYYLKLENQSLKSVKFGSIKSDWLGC

Test [7] concerns the target MMP9 (human, UniProt P14780 107-707, limits assumed).
Test [8] deals with MMP3 (human, UniProt P08254 100-477, limits assumed).
MMP3, sequence (P08254 100-477 limits assumed): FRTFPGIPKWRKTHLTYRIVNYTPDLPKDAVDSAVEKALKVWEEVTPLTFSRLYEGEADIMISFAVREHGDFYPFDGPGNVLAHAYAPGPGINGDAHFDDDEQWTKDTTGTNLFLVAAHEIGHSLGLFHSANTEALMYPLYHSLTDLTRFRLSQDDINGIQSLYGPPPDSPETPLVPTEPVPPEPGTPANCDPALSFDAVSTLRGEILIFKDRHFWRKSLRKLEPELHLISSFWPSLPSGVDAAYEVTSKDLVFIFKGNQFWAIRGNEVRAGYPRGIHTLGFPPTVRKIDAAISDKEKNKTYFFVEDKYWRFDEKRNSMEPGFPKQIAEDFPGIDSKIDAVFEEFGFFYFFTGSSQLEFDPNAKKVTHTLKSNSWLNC
Test [9] addresses Elastase.
Test [10] has as its target T5, Cathepsin G (UniProt P08311 21-244).
T5 sequence (looked up): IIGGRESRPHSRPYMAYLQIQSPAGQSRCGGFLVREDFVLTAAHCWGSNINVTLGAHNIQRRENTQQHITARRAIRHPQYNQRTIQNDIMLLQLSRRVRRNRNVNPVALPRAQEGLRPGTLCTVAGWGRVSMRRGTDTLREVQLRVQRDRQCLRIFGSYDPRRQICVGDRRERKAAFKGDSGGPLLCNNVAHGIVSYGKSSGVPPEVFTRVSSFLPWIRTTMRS

Test [11] deals with T6, MMP7 (UniProt P09237 95-267, limits assumed).
T6 sequence (looked up): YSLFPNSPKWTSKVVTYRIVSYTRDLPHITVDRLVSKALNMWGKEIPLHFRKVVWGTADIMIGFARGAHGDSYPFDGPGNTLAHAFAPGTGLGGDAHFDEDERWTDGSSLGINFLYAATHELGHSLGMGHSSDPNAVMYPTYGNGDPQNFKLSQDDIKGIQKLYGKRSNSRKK

MMP9, sequence (P14780 107-707 limits assumed): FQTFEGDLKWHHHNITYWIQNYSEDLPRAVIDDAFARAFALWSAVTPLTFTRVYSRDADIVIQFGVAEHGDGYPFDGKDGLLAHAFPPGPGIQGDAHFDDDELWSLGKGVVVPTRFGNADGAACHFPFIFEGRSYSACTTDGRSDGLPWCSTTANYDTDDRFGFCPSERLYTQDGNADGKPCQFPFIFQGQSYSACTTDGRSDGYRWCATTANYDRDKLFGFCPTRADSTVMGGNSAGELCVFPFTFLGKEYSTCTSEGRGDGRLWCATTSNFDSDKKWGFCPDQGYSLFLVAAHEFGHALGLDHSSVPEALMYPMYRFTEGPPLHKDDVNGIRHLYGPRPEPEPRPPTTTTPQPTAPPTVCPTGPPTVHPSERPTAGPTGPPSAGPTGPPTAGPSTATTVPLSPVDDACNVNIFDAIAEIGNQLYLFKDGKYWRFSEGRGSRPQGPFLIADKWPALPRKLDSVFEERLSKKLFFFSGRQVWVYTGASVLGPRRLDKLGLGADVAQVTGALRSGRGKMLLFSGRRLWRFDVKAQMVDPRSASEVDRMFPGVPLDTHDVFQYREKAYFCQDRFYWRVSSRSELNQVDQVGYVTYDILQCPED

B1: Variant A2M, bait region SEQ ID NO 30 (other)
chain: SVSGKPQYMVLVPSLLHTETTEKGCVLLSYLNETVTVSASLESVRGNRSLFTDLEAENDVLHCVAFAVPKSSSNEEVMFLTVQVKGPTQEFKKRTTVMVKNEDSLVFVQTDKSIYKPGQTVKFRVVSMDENFHPLNELIPLVYIQDPKGNRIAQWQSFQLEGGLKQFSFPLSSEPFQGSYKVVVQKKSGGRTEHPFTVEEFVLPKFEVQVTVPKIITILEEEMNVSVCGLYTYGKPVPGHVTVSICRKYSDASDCHGEDSQAFCEKFSGQLNSHGCFYQQVKTKVFQLKRKEYEMKLHTEAQIQEEGTVVELTGRQSSEITRTITKLSFVKVDSHFRQGIPFFGQVRLVDGKGVPIPNKVIFIRGNEANYYSNATTDEHGLVQFSINTTNVMGTSLTVRVNYKDRSPCYGYQWVSEEHEEAHHTAYLVFSPSKSFVHLEPMSHELPCGHTQTVQAHYILNGGTLLGLKKLSFYYLIMAKGGIVRTGTHGLLVKQEDMKGHFSISIPVKSDIAPVARLLIYAVLPTGDVIGDSAKYDVENCLANKVDLSFSPSQSLPASHAHLRVTAAPQSVCALRAVDQSVLLMKPDAELSASSVYNLLPEKDLTGFPGPLNDQDDEDCINRHNVYINGITYTPVSSTNEKDMYSFLEDMGLKAFTNSKIRKPKMCPQLEQYEMHGPEGEGEGPRYLTAIPENFFGVSEDLVVQISELEGRGSPHTKLRKYFPETWIWDLVVVNSAGVAEVGVTVPDTITEWKAGAFCLSEDAGLGISSTASLRAFQPFFVELTMPYSVIRGEAFTLKATVLNYLPKCIRVSVQLEASPAFLAVPVEKEQAPHCICANGRQTVSWAVTPKSLGNVNFTVSAEALESQELCGTEVPSVPEHGRKDTVIKPLLVEPEGLEKETTFNSLLCPSGGEVSEELSLKLPPNVVEESARASVSVLGDILGSAMQNTQNLLQMPYGCGEQNMVLFAPNIYVLDYLNETQQLTPEIKSKAIGYLNTGYQRQLNYKHYDGSYSTFGERYGRNQGNTWLTAFVLKTFAQARAYIFIDEAHITQALIWLSQRQKDNGCFRSSGSLLNNAIKGGVEDEVTLSAYITIALLEIPLTVTHPVVRNALFCLESAWKTAQEGDHGSHVYTKALLAYAFALAGNQDKRKEVLKSLNEEAVKKDNSVHWERPQKPKAPVGHFYEPQAPSAEVEMTSYVLLAYLTAQPAPTSEDLTSATNIVKWITKQQNAQGGFSSTQDTVVALHALSKYGAATFTRTGKAAQVTIQSSGTFSSKFQVDNNNRLLLQQVSLPELPGEYSMKVTGEGCVYLQTSLKYNILPEKEEFPFALGVQTLPQTCDEPKAHTSFQISLSVSYTGSRSASNMAIVDVKMVSGFIPLKPTVKMLERSNHVSRTEVSSNHVLIYLDKVSNQTLSLFFTVLQDVPVRDLKPAIVKVYDYYETDEFAIAEYNAPCSKDLGNADYKDDDDKGASHHHHHH
B1: the “Protease Inhibition (% of WT)” value in test [1] is 93 % of WT; in [2], 296 % of WT; in test [3], 67 % of WT; in test [4], 29 % of WT; in test [5], 96 % of WT; in [6] it was 3 % of WT. The “Protease Inhibition (% of WT)” value in test [7] was 18 % of WT; in test [8], < 100 % of WT; in test [9] it was 55 % of WT; in test [10], 104 % of WT; in test [11], 91 % of WT.

B2: Variant A2M, bait region SEQ ID NO 28 (other)
chain: SVSGKPQYMVLVPSLLHTETTEKGCVLLSYLNETVTVSASLESVRGNRSLFTDLEAENDVLHCVAFAVPKSSSNEEVMFLTVQVKGPTQEFKKRTTVMVKNEDSLVFVQTDKSIYKPGQTVKFRVVSMDENFHPLNELIPLVYIQDPKGNRIAQWQSFQLEGGLKQFSFPLSSEPFQGSYKVVVQKKSGGRTEHPFTVEEFVLPKFEVQVTVPKIITILEEEMNVSVCGLYTYGKPVPGHVTVSICRKYSDASDCHGEDSQAFCEKFSGQLNSHGCFYQQVKTKVFQLKRKEYEMKLHTEAQIQEEGTVVELTGRQSSEITRTITKLSFVKVDSHFRQGIPFFGQVRLVDGKGVPIPNKVIFIRGNEANYYSNATTDEHGLVQFSINTTNVMGTSLTVRVNYKDRSPCYGYQWVSEEHEEAHHTAYLVFSPSKSFVHLEPMSHELPCGHTQTVQAHYILNGGTLLGLKKLSFYYLIMAKGGIVRTGTHGLLVKQEDMKGHFSISIPVKSDIAPVARLLIYAVLPTGDVIGDSAKYDVENCLANKVDLSFSPSQSLPASHAHLRVTAAPQSVCALRAVDQSVLLMKPDAELSASSVYNLLPEKDLTGFPGPLNDQDDEDCINRHNVYINGITYTPVSSTNEKDMYSFLEDMGLKAFTNSKIRKPKMCPQLEQYEMHGPEGEGEGEFRAAPFLTAIPENFFGVSEDLVVQISELEGRGSPHTKLRKYFPETWIWDLVVVNSAGVAEVGVTVPDTITEWKAGAFCLSEDAGLGISSTASLRAFQPFFVELTMPYSVIRGEAFTLKATVLNYLPKCIRVSVQLEASPAFLAVPVEKEQAPHCICANGRQTVSWAVTPKSLGNVNFTVSAEALESQELCGTEVPSVPEHGRKDTVIKPLLVEPEGLEKETTFNSLLCPSGGEVSEELSLKLPPNVVEESARASVSVLGDILGSAMQNTQNLLQMPYGCGEQNMVLFAPNIYVLDYLNETQQLTPEIKSKAIGYLNTGYQRQLNYKHYDGSYSTFGERYGRNQGNTWLTAFVLKTFAQARAYIFIDEAHITQALIWLSQRQKDNGCFRSSGSLLNNAIKGGVEDEVTLSAYITIALLEIPLTVTHPVVRNALFCLESAWKTAQEGDHGSHVYTKALLAYAFALAGNQDKRKEVLKSLNEEAVKKDNSVHWERPQKPKAPVGHFYEPQAPSAEVEMTSYVLLAYLTAQPAPTSEDLTSATNIVKWITKQQNAQGGFSSTQDTVVALHALSKYGAATFTRTGKAAQVTIQSSGTFSSKFQVDNNNRLLLQQVSLPELPGEYSMKVTGEGCVYLQTSLKYNILPEKEEFPFALGVQTLPQTCDEPKAHTSFQISLSVSYTGSRSASNMAIVDVKMVSGFIPLKPTVKMLERSNHVSRTEVSSNHVLIYLDKVSNQTLSLFFTVLQDVPVRDLKPAIVKVYDYYETDEFAIAEYNAPCSKDLGNADYKDDDDKGASHHHHHH
Turning to B2, the “Protease Inhibition (% of WT)” value was 180 % of WT in test [1]; 398 % of WT in test [2]; 67 % of WT in test [3]; 38 % of WT in [4]; 90 % of WT in test [5]; 36 % of WT in test [6]. For the same molecule, the “Protease Inhibition (% of WT)” value in test [7] was 14 % of WT; in test [8], 129 % of WT; in [9], 75 % of WT; in [10], 69 % of WT; in test [11], 94 % of WT.

Values taken from patent US20230250154A1 (CYTONICS, published 2023).
